Data published in the DeepSol protein solubility set.

test: soluble on expression in E. coli; label from the status in PepcDB or PDB records

| Sequence | soluble on expression in E. coli |
| --- | --- |
| MSLMSVVKVGVNGFGTIGRRVALAITLQKDMKLVGVVKRTPDYAALYAASRGIPIYTPTAKEAEEFEKRGIKVGGTLRELLARVDVVVDATPEGQGAKNKPLYREAGVKQVYQGGEKPEVAEASFSTLCNYEESKGRGSLRVVSCNTTGLLRLICTLNREFGVESVRAVLVRRGADPKEVKKGPIDSIVLNPPTLPSHHAVDVRTVLPWLDIKTAAVAVPTTFMHMHHVTLKLAKPVEKREVLETLASAPRIMLVSSGDTGIKSTSQLVDAARLSRMGYDIPELVVFEESVAVDGREVMLFQAVHQESIVVPENIDAIRAVASSPLTLDETLKATDGSLGLRKTLW | soluble |
| MSFSDHFSAVAASYAKARPRYPQRWFRYLARIVPDRQRVWDCATGNGQAAIALAEYFSEVIGSDASAAQVRQARSHPRVQYLVFPAEATPLAPASLDLITVAQAAHWFDLPQFYIEAQRLLRPGGVIALWGYGLGSLNPAIDHVFNHFYRDWLDPYWPPERQWVEQAYEGLSFPFEPLPTPTFSMQCDWTLFDLLAYLRTWSGVQQFQRQRGFDPVWAIAPELQRVWGDPQRYRRITWPLFAKVGRWQPLEHHHHHH | soluble |
| ASHSRKFLDVRSEEELLSCIKKETEAGKLPPNVAAGMEELYQNYRNAVIESGNPKADEIVLSNMTVALDRILLDVEDPFVFSSHHKAIREPFDYYIFGQNYIRPLIDFGNSFVGNLSLFKDIEEKLQQGHNVVLISNHQTEADPAIISLLLEKTNPYIAENTIFVAGDRVLADPLCKPFSIGRNLICVYSKKHMFDIPELTETKRKANTRSLKEMALLLRGGSQLIWIAPSGGRDRPDPSTGEWYPAPFDASSVDNMRRLIQHSDVPGHLFPLALLCHDIMPPPSQVEIEIGEKRVIAFNGAGLSVAPEISFEEIAATHKNPEEVREAYSKALFDSVAMQYNVLKTAISGKQGLGASTADVSLSQPW | soluble |
| MKWPWWPVCVPLSKRLTLPLPSTANPVVQPSRLALACANRLFEAADNRERFLQALMTPPAYPATVLWCGEPAAALPFAALPPLPWQPPWVSRFVAGSPTGQHPLHAAGAYYCLDSSSVFAAVPLLTLPQEPSLVIDVCAAPGGKSLFAWRSLHPRYLICNETIGKRVGKLIGNLKRCRVHPVGVTSWDSEVLAAEFQGTADVVIVDAPCSGQSLLAKGQKAEGCFHPLTIRHNQRRQKRILAAATTLVRPGGWLLYSTCTFSQDENEDVAAWLMAKFPHLLPQPVPALAAYQSHLAAFPCYRLWPHQGEGAGAFTILWQHQGLEHHHHHH | soluble |
| MGSDKIHHHHHHMRRIKIFDTTLRDGEQSPGASMSIEEKVEMALMLEDLGVDLIEAGFPVSSPVQFEAVKRVASAVQKPIVVGLARCVEKDIDAAYEALKDRPKDKRMIHVFIATSPIHRKYKLRMEKEEILERIRRYVGYAKQFFDLVEFSAEDASRTEVPFLIEAYKTAIEAGATTINVPDTVGYALPDEFGELIKTLREGVPGIENVDLSVHCHNDLGLAVANSLAAVQNGATQVEVTLNGIGERAGNCALEEFVMILKVRKDKLPYETGIKTELIYPASRLLTHITGLIPSRNKPIVGENVFLHESGIHQDGVLKHRETYEIMKPSDIGRSSETLVLGRHSGKHALRKKLETYGIKLDEETFQKVFEKFTELADRKKEVYDDDLFSIVSEVLREPINGYKLVHFHVHTGNTLLPTAAVVLQVGNEKREAAEAGNGPVDAIFKAIDKALGIQPKLEEYIIQAVGTGKNAQGEVKLTLRIDNELYSGRGVSTDIVEASAIAYINAINKYLIAKGLLRKNGGAE | not soluble |
| MSEKDFVQVAKLGKTVGLKGYVKLHNLSDFSSQFKKDATFFIKNTKEMLKIKHYNANNSTVLFENYEDIEKAKELTNLILFQSIEKSRQTCKLKKDEFFYFDILECEVFEEDKRLGKVVDILETGASYLFEIQSDEKWVEKKYPKIFFIPYLDKFVKNIDIEKRQIFCTQDAFLILENSLEHHHHHH | soluble |
| MSLTPVISAYNWVPPPARGLVRDLRIRWALEELGRPYAVETVLHQDKTAYRAKQPFGQVPAYDDGEVQLFESGAIVLHIAEQDERLLPRDPAARARAIGWMFCALNTLEVPLLQLAELNIFSAGQAWTEGARPKVERWVRQRLGQLAARLGDKTYLDGETFTAGDLLVADVLRQAPDAMLAETPTLVAYRDRCTARPAFQKALAAQLADLNGPPPPGWGEGHHHHHH | soluble |
| GSMLGMIRNSLFGSVETWPWQVLSTGGKEDVSYEERACEGGKFATVEVTDKPVDEALREAMPKIMKYVGGTNDKGVGMGMTVPVSFAVFPNEDGSLQKKLKVWFRIPNQFQGSPPAPSDESVKIEEREGITVYSTQFGGYAKEADYVAHATQLRTTLEGTPATYQGDVYYCAGYDPPMKPYGRRNEVWLVKA | soluble |
| MSLTPRFIDLHTHTTASDGSDSPADLVRKATEAGLAAVAVTDHDTVAGLDEAVAMGHETGIEVVRGCELGVRSEYGEIHILGLWLPEKPETLLDAMKELRRHRNERNERIVDNLRTLGMDITYEEVRALSGGVSVGRPHIALALLRHGYIRTPQEAFDRFIGPGAPAYAPKKVFSPAEGVRLLASCGATVAIAHPMLLRCPEEWLDDTVADLKVAGLDAIEAYHSEHSHKDERRCVDIADRHGLVLTGGSDYHGKAKPAISLGRGREGHHHHHH | not soluble |
| VLGAIENVEIADIKQAFTARIDTGATTSSLNAVDLQEFERNGSQWVRFHLVNQDVKADDGKLEWITAPVIRNVKIRQATADDAERRPVVELWIKLGAIHEKVQFTLADRSHMTHSVLLGREFIQDIAVVDVSKEFVQSKK | soluble |
| MGEHKQNLSLQDMTHSDTGQIAYLKKVCTDDLAKNFPDLPPMTPGITVWALFGETGYPIILSDERSIALAGANEHELQIVTLH | not soluble |
| KTNTATVKVLPISMSDEGDSFLVKDSLGENKIPKNPSKVVILDLGILDTFDALKLNDKVVGVPAKNLPKYLQQFKNKPSVGGVQQVDFEAINALKPDLIIISGRQSKFYDKLKEIAPTLFVGLDNANFLSSFENNVLSVAKLYGLEKEALEKISDIKNEIEKAKSIVDEDKKALIILTNSNKISAFGPQSRFGIIHDVLGINAVDENIKVGTHGKSINSEFILEKNPDYIFVVDRNVILGNKERAQGILDNALVAKTKAAQNKKIIYLDPEYWYLASGNGLESLKTMILEIKNAVK | soluble |
| MGSDKIHHHHHHMLLYIHGFNSSPFSDKAIMTAQYMAQHHPSVLFHQPQLPNTPKAAMALLLEYVEAALKDDEPLTYIGSSLGGYFASYLAEHYGGRAVLVNPAVKPFELFDEFMGPQFNPYTGENYQVLPEHKMEVAEFNTPVIRNPDRFLVLLQSGDEVLDYREALSKYHHCQLRIEAAGDHSFVGYEHYLQTISQFLHLP | not soluble |
| MGSDKIHHHHHHMGGIWMSSAKTLEEVISKISGVISAKVIEEDGQPREIHVIADPSRNPKQIVRDIETVALASLGMKIDRRIISVAQLSQGRFPSSQTYEITSIEVKNLDRKKQVKVTIHNPLEDEDMVGESAGPGTSTNLPRLVGEAVIEAFNPDCPVSVDDVQKVFLAGREFVLVHLTIQDEDRERTEVGVAPLEGDFLKSVATATLKVVKDLT | not soluble |
| MSLNQPDLFSSTSGTVGGLAVQSILEGFKSHYARDQETELSLEEYLSLAKQDPMAYASPAERMLAAIGEPELIDTRNDPRLSRLFSNRLVRRYPAFKEFYGLEDVIDQIVAFFKHAAQGLEERKQILYLLGPVGGGKSSIAERLKVLMEAYPIYALKGSPVNESPLGLFHPDRFGDTLEQEYGIARRYLCGIMSPWAVKRLREFDGDISQFRVVRLNPSVLRQVAIAKTEPGDENNQDISSLVGKVDIRKLERYAQDDPDAYSYSGGLCLANQGLLEFVEMFKAPIKMLHPLLTATQEGNFKGTEGFSAIPFNGMILAHSNESEWQTFRNNKHNEAFLDRIYIVKVPYCLQVSEEVCIYEKLLRHSSLAQAPCAPGTLDMMAQFSVLTRLKEPENSSIYSKLRVYDGESLKDVDPKAKALQEYKDYAGTDEGMTGVSTRFAYKILSSVFNYDQTEVAANPVHLMYVLEQRIAREDFPEETRRRYLEFIKGYLAPRYAEFIGKEIQTAYLESYSEYGQNIFDRYVTFADCWIQDEEFRDPETGESFDRSALNDELEKIEKPAGIANPKDFRNEIVNFVLRARANNAGRNPNWTSYEKLREVIEKKMFSNTEDLLPVISFNAKASAEDRSKHQSFVDRMVDKGYTEKQVRLLCEWYLRVRKSSEGHHHHHH | soluble |
| MQRKLKVTSLEPGTVVITEQAVDTCFKAEFEQIVLGKRVIRKTDLNKKLVQELLLCSAELSEFTTVVGNTMCTLDFYEGQGRLDGALCSYTEKDKQAYLEAAYAAGVRNIEMESSVFAAMCSACGLQAAVVCVTLLNRLEGDQISSPRNVLSEYQQRPQRLVSYFIKKKLSKA | not soluble |
